For 47 sequences, protease stability score results are on record in the NTF2 design screens of Basanta et al. (2020).

This data set can be described thus: protease stability score; higher = more stable; yeast display proteolysis, trypsin and chymotrypsin.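 Note: relative to predicted unfolded state with 0 unfolded-like and 1 meaning tenfold more protease.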
Regarding “TEEEREFKEFVEHWMRAIETGDEELLYKLLDPNTQLNYNGVNNHGWHVIKHLEELLGIKVREMRIRDFHHIGDKIVLDVEDIIRIDGRTIILRTEILIVKVDGRWHLKSERVK”, the protease stability score worked out at 0.965.
With “SEHELIAHEIVERWVHDVNTGDWENLHRLFDPNTKIDFNGVHLHGRRSLEEWIHEHLRRADHFEVRIKDIRVQGEKSVANTHVNVNINGQEYRRDTSLILIIVDGKVKTMTIRVH”, the protease stability score is 1.5.
“DDEEKSRDIAIEIFVHLLRTGDEHEMSKLADPHVKVNINGRELVGMEIFIEWIRRWSKEIRLHDVKVKDVRTQGDKIEVDGREDGIQGDKRKEVETSFFFRKYNGKWFIERMEFR” showed a protease stability score of 1.96.
To “DDLETMFRRLFREWIERAETGDESRLRHLADPHYRSDQGDYDLHGREFAHEFLSRLWKELRFTIHIRHMYVYDGRVEVDGEIRVRINGRETTHKIRIEIVIVDGRIESEHIEIR” belongs 1.26.
As to “DEEKEEIRQFEETFVEAMKTGDEDVIRHLLDPHVRVDINGQTFHGREIVIEMVSRFPNVQVHIDDLDVQGNWAHSDVQLHQGDKYIRLHIDVTKIDGKWRITFLKFK”, the protease stability score was found to be 1.45.
On to “SDDEEEVLRLMDHILHALWTGDWKHLEENMDPNVRSHINGQDVHGMERVVEFILRELKELRFEHLHIEHVEIIGNKATLHYRVDGHINGRRINRRVHLEVTMVNGRVKQVIFFNE”, for which the protease stability score is 2.08.
Sequence “DELTKEFEHFLEMLRRAQETGDEETVAKLMDPDVRIIIDGRNIIGREELTRFVSEWREEITVNEKHLKVINGRIHVDGEYHSRIRFDGREQRYSTRVHIVTIKVDGQWLLRTVHIG” showed a protease stability score of 1.05.
As to “SEEEELEEFFIHLMIRMWDTGDFRTFKRLADPNVRLEVNGRHVVGREEVERLLRELLELLGADVIIHRDRDRDKFNGVIVVIIHGQIRQGDKFFDTHLHFVIEKVDGRWLLKSIHIEIR”, the protease stability score turned out to be 1.5.
“SEEEKEVQEYLERSIKDIRTGDEDELRRQLDPNYKLDVNGQKHIGMELWLKILSREVKEIRIDHVERHIEVINGRIDVKGELILNFNGREFRHHFEIHATKFNGRWVVDSMRVE”: the protease stability score worked out at 1.15.
“DEEERAARFVLELIIRTFDTGDEHTIHELLDPHVRLWVGDKTFHGREQITHLIQRHLEELGFDHVHVHHRTIDVQGEKIELHGELELRQGDKRDTRTIKIIVQKVDGRWRITIFEIE” returned a protease stability score of 1.48.
Sequence “DEKTEEIERFFKKWVEALRTGDWKTLMELLDPNARFDINGREIIGREIYVKILKEELKHFGVTRIHNEVEIKHSDEQGNKLNLDGKLIINWDGKNDETRLILYVLKVDGRWIIEEVRIR” gave a protease stability score of 1.44.
In the case of “DEDREHVLKVTRLIWRAWMTGDFERISHLIDPNAKIDINGVDLHGREKLRHHLERVDYMHLESEHERRIDIIGDFVRIEFRFTVILIVNGQEVRDTTHVEIRARIVNGRLTEVYVHEH”, the protease stability score was determined as 1.55.
On to “TEEEQLLKEFAELYLRNWWTGNEDKLLELADPHARSVVNGREIHGRENMYKLIRLWLERFKNIQIHYDDVKFQGNYVKLHGHMTVGDKTTHIIIHILVIDGVIKELSLEVN”, for which the protease stability score was found to be 1.56.
Turning to “DEVEENAIRIAEDMLNNVLTGDEHLLRQLLDPHVRFILIVGDKTYTWHGREDFLEWLRKRLKQIDHEHIIIRDIKVVGDKAHIDGELHINVNGRTEDTRVHWDILVINGRIHKIRIIIH”, the protease stability score worked out at 1.38.
Regarding “SEIEKDAKDALKWFVDTTRTGDEDLWLRLLDPHVRVIIGDKEYHGREESEKLIRHLSDLFGVDKVEVILNLERIHIQGNKIDVKGKLEVRQGNYTDDREIEMVMIKVNGRWFIKYEVIK”, the protease stability score was found to be 1.18.
Next, “DEEKKFYIKLFELFWRAWLTGNEQFLLEMADPNVKVEYTYNGRDVRTHGRETMYTFLHEILRYLGVKHSRLRRDEFQGDKVHLDVEEHFNGRTVKTLIIIDVVDGRLEIDKFHTT”: 0.705; “DDRKKEAHELFEFLLDVFRTGDEKSTEELLDPHTRNVIGDKHYHGRDVWVTFMKKFKNAKVHFNHLEVQGDKVTFDITFEIGDKTHRMRFFLEKYDGRWFIKEIQVD”: 1.44; “DEEEELVIHVAHEILHNHLTGDEERWEELADPRTKVEFNGVQNHGREFTNEYRKEFHNRYDHWEIRIRDYRVIDGVAHFDTELIIRQGDKEIRVKVHLEFIIVNGKVSEIRIEVR”: 0.607.
“DEEHKELRRAWEQLIHDIKTGDEESFKRLADPDVQVRVGDKVEHGREATERWLRQVDHIKHFEEKRIHIYDGRVELKGRVTGVINGRELNTEIDFEIVYIDGKLHRIRIHFR” yielded a protease stability score of 1.09.
Sequence “NELEDLVRWAWQLIVESHQTGNEHMMEELADPNMRIHINGVDLVGRKDFRKMLKDHRDRVDHLEVELTDFILIDGRVIVHGQINIQIGDKREERRVRLFLLKINGKWRIEKLEVE” showed a protease stability score of 1.64.
For “SEEDRFLYEFARTILHLFETGNEEIFHKLADPHVRLHVNGVDNVGWERSYKFFHEEVRELRFHTWRIRDHRTFENRAHLDIEVDTEFNGVRLHLKSTLDVVVVNGRLKFFHIKQE”, the protease stability score was 0.424.
In turn, “DENEEDSKRAVELIEDSMKTGDEELMTKQMDPNVRVDYNGKEHHGWEHAKRWFHLMGVDHLHLHRVRLINGVVHLDVDSRINGREFKVHITALKVDGQWVLKEISIR” had a protease stability score of 1.26.
Turning to “DEDEEQTRRAWKINLEQWLTGDEELLDRNLDPDVRNDVNGVRLHGMELLTEMLHRFIEKLKGATIRLKDFRLRFYGNKIEVRVETIVHVNGVQIHVELIFIATKVDGRWRIHEISHHNR”, the protease stability score stood at 0.868.
For “SEEEEDARRMMEILIKTLKTGDWRTIRRLVDPNVRVDFNGVDDHGRENWLKHVLHIRFKRIYIRDVRVYDGRVHIHGEINIEFDGRSDHYEVEIHIDKVDGRWVITHILIV”, the protease stability score was determined as 2.26.
To “TELEEIFRLALEYLDKIWKTGDEHTLKRMFDPTTLLVVDGKRQHGMEFWREFLERYDHFHHLEVDDYHDVNGVLRLHGVIDGTVNGRRHEIHVHIVASKVNGKWRLKSVIFH” belongs 1.5; to “KHEEDEWKRMIDIVLHMLKTGNFELLERLADPHARSHIDGVRIHGREKFVEILFEVWHFYKNLTISINHIDVFNGVIVIHGRLDINGRQVEVHIVVTKINGKWFLESHSEIFH”, 0.572.
“DEDEEQLHEMVRIFLENMQTGNFEALLNYMDPNAKRRDVQGDKDITYIGREQAKEHDEKLDRHLGVKHFEIKRITIQGEKADIDTRLLFNGQLRDVRIHIIIVNGKLSYLEVQID” yielded a protease stability score of 0.897.
For “SEEEEIVKRFIELLDHVMKTGDEKFYEHMADPNTRVKQGEFEDHGREAFRWFLKEIRSKDVKTEHVELFDGRLRVEGRLLGVFNGQHVELHMILISVKVDGRWRVKMVIIH”, the protease stability score amounted to 1.52.
For the sequence “SEDHERMKEMIELTLHAIFTGDEDLLKRLLDPHTRIVVNGQDRHGRHALEWFLSVLGIKHIHYEIVRTHLVNGVLHNHIHGHLNVNGKTYELEVEITIRKINGRWLMHVVQWDII”, the protease stability score is 1.99.
To “DEDEEIRTRSLRLLIQLLITGDEEIFKQLFDPHALVIINGRRHHGWTLLEEYWRRLGADVIKSVELENTDDVNGVLILDMRLHMHINGRDDSQRIHIIATKINGKWRNESIVLS” belongs 1.22; to “DEEEEQARHMVMLFLRYILTGDEKHFQTLADPDVRTDVNGKEHHGREEATRTLRLYIELMGADHIQLKDWEIEVQGEFVRLRLHVQVDVGDKHLRTDLHFEIKKVNGQWVVHQVVIKTL”, 2.19.
Consider “DEKKEDIDRMVKEIHTIFATGDEDRFKELLDPNVRVDVDGKKRHGREDATEHFRKWVLTLGIDHSRVHSVHTIDGVVFLEIRFDVNGQTIKVRVLAVKVDGQWLIEEVEIRWK”, for which the protease stability score turned out to be 2.38.
For “TEQDEIAERVAREIMTMLLTGDWQRLRELADPHVRTIIDGVHVHGWDRMIEVLEVLHREIRIHDIREHSIKVYNGRVEIITHNDGEIDGQRVESSERHDIIIVNGRIKTIRLDIR”, the protease stability score was 1.34.
Take “DEEEKVVFELLRLFITAWETGDEDVLLRLADPNVRMTIGDKHYHGMEHFSHVYLLIFEELRITVKVHDIRIIGDKAYVDVEERRHQGDKSWKYRTHYEFEKIDGRWKLRRVEVK”: the protease stability score is 2.54.
Consider “DHDDERVEHFARHWVHNFLTGDWKKLTDQVDPHVRLDVNGQKFHGREAIREWLEHILREIRVHDLKFDHIHLQGDYTIIEGTQIIHYNGRTEIRKTRIEFIIVDGKFQEIRIKTL”, for which the protease stability score was 1.43.
Sequence “SEDDEKVREAFELWARLVLTGDEEIIEKMVDPHMRIEIGDKELHGRDELRRWIREIRIRDIDVHDVRVQGDKAESDLKVRMDIDGVETRRHTHLIMHKFDGRWIIESIDVR” had a protease stability score of 1.36.
In turn, “DEDDEVAIKFLEDIIQVWETGDEEEFSRLFDPDYRVHIGDKTLHGREIVVQEILEHLRRLGIERFEVRIHIRHAHFYNGRLDLNGELVIIINGKELRRHTHFVVLKVNGRWLLEREEVK” gave a protease stability score of 1.76.
Sequence “DELEEETREAIRLMFESVKTGDEDSIKHLADPHVRVLINGRDDHGMKILHHLFSRFKNLTIELKRVHVYGEKAEVHTNWHINGRYYHVIWILIKINGRWFIESIEIH” yielded a protease stability score of 1.61.
The sequence “SEDHENIERFLTHFVTAIETGNFNELEKLLDPNAQIEINGQRIHGREWFVDHIRRIKNIRFEIHVEDSEFYNGKAHIRTRLILKYGDKEREHDVVLVIRKINGRWVIEWIIIE” gave a protease stability score of 1.54.
For the sequence “DEVERWAKEIAELFLKLYLTGNWKNLERLLDPHMQFIIDGVRIHGREEMREFIRHEREFFKGMRHEITDSHVDVQGEKVEVHLHIEVIVNGQKHVRHINLHIEKIDGQWLIKLVIIHHE”, the protease stability score amounted to 1.26.
Next, “SDDERMLHLLIKILIRAIQTGDEDTLLRQVDPHVRIDIDGRDIVGREDLIEFAKHWRFELREVNIRHMEIYGEYIHAEVEVRGKIIIGDKEVETTVDTRHIILKINGRWFFHSISVK”: 1.26; “SEEEKEAEDILRMVIHVLRTGDWHTLKNMLDPHAKNDVNGREQVGMRDWIETFTRIHRELGISNIDFKLHDIRITEHHVLVDGILIFNGKEYRLNLIITKINGRWVNEHIHLH”: 1.08; “DEDERFFHEMLELWMHIYETGDWNRLHELFDPNALLLIGDKQVHGREKVTHYLFEMVHRADHSESRVRELHVIDGRVHIHLELHIDQGDKHLRIEIFLHAKKVNGRWVFTKLELR”: 1.99.
For the sequence “SDLEERSKSALHHLEEVLRTGDEDESRLMLDPNVRSVYDGREFHGRELVTELLSAFLKHLRIRDVKVERVEMNENEVRWDMKIDGTVGDKRYETHVHIIVVKVNGRWFLKEVRFG”, the protease stability score worked out at 1.39.
Sequence “SELKQAIDDLIRRFEHIYHTGNEEIWERLADPNTRIDIDGQEIIGREQATRERREEMKKLGVERVEVELRLRNVEVVGNKLHLDGELILRYGDKTVVIDSKINLQKINGRWVIREEIYH” yielded a protease stability score of 1.04.
For the sequence “SEEEEFLEKLMREFVHDLLTGDEDRIRELADPHVKFEMDVNGVRFRAHGREEMLRELRRFWKEIRVKHIQTHDVKNVGDKAHSDVREVVEVDGREERHESEIIVVTINGRMQSVVLIFK”, the protease stability score is 1.52.
In the case of “DEHNKLAILIVEILWHLWETGNEEELVKLADPNYKHDVNGKISVGREEFEKTTHYLLNHLRFKHRHVRDEKVQGNKFHVDGQLNIDVNGREVRFDLRVVYIIVNGRLRSEHIDIV”, the protease stability score amounted to 1.71.
